According to patent US20160193348A1, “MUCOUS LAYER-ADHESIVE POLY-r-[sequence] ACID NA[…] DRUG [sequence] SYSTEM USING SAME” (priority 2013, published 2016):

Assays:
[1] = mucous adhesive property by SPECT/CT imaging after intranasal injection; details: 123I-labeled, mice, imaging at 1, 6 and 12 hours
Protocol: The selected eluate fraction was diluted with PBS to a final concentration of 500 μg/ml in view of ^123I-activity to be injected per mouse.
The amount of sample injected for SPECT/CT imaging was such that the sample would have a ^123I-activity of about 200 μCi or more in 40 μl upon nasal administration. 40 μl of a sample was injected into each mouse using a tip for nasal administration, and at 1, 6 and 12 hours after injection, SPECT/CT imaging was started. SPECT/CT imaging was performed for about 1 hour, in which CT imaging was performed for 10 minutes, followed by SPECT imaging for 50 minutes. Because the amount of sample injected intranasally is limited to 40 μl or less, the concentration of the sample is necessarily required to ensure ^123I-activity for imaging. ^123I-labeled nanomicelles were centrifuged, filtered (Ultracel, 10 kDa) and concentrated, thereby ensuring activity required for imaging per 40 μl. The sample was injected into both nasal cavities alternately at intervals of a few minutes depending on the size and condition of the mouse.

[2] = immunohistofluorescence imaging after intranasal injection of FITC-labeled OVA; details: mice

B1: OVA alone: OVA (ovalbumin, Sigma-Aldrich), model antigen injected alone (protein, UniProt P01012 2-386, looked up)
Ovalbumin: GSIGAASMEFCFDVFKELKVHHANENIFYCPIAIMSALAMVYLGAKDSTRTQINKVVRFDKLPGFGDSIEAQCGTSVNVHSSLRDILNQITKPNDVYSFSLASRLYAEERYPILPEYLQCVKELYRGGLEPINFQTAADQARELINSWVESQTNGIIRNVLQPSSVDSQTAMVLVNAIVFKGLWEKAFKDEDTQAMPFRVTEQESKPVQMMYQIGLFRVASMASEKMKILELPFASGTMSMLVLLPDEVSGLEQLESIINFEKLTEWTSSNVMEERKIKVYLPRMKMEEKYNLTSVLMAMGITDVFSSSANLSGISSAESLKISQAVHAAHAEINEAGREVVGSAEAGVDAASVSEEFRADHPFLFCIKHIATNAVLFFGRCVSP
- time OVA remained in the nasal cavity (SPECT/CT) [1]: ≤ 6 h
- time OVA remained in the nasal cavity (immunohistofluorescence) [2]: ~1 h
